Experimental data as given in patent US20110256153A1 (IMMUNOGEN, published 2011).

Experiments:
hCD37-M3 = biological target: T1, hCD37-M3 (human/murine chimera, UniProt P11049 1-281); assay: flow cytometry, 300-19 cells expressing hCD37-M3, 1.5 µg/mL antibody
T1 construct: stably expressed on 300-19 cells; also called hCD37-M3 variant
T1 chain: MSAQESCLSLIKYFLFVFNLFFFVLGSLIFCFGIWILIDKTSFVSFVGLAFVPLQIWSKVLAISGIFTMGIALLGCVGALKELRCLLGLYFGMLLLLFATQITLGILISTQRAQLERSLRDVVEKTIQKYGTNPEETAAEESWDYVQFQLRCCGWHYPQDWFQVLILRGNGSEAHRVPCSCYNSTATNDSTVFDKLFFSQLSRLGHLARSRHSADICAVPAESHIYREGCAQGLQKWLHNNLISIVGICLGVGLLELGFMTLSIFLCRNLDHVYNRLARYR
Procedure, shortened: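 300-19 cells transfected with human CD37 wildtype or variants (non-transfected as control), 1×10⁵ per sample, incubated 3 h with purified murine antibodies (1.5 μg/mL for variant comparison) in RPMI-1640 with 2% goat serum. Bound antibody detected with FITC goat anti-mouse IgG (1 h), formaldehyde-fixed, analysed by flow cytometry.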

human CD37 [1] = biological target: T2, human CD37 (human, UniProt P11049 1-278); assay: flow cytometry titration on WSU-DLCL-2 cells; EC50 taken as apparent Kd
T2 construct: Tetraspanin antigen; Expressed on 300-19 cells transfected with pSRa-CD37 (entire CDS) or endogenous on WSU-DLCL-2, BJAB and Ramos lymphoma cells; also called CD37 antigen; human CD37 wildtype
T2 sequence: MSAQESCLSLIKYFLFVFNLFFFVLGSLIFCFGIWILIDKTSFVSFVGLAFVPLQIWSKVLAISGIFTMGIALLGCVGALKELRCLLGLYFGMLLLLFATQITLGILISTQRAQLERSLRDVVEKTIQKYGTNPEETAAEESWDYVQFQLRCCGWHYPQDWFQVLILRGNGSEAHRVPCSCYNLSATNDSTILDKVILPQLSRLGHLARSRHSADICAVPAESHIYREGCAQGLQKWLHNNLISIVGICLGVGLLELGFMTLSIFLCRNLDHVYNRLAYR
Method: (§1) Binding specificity was tested by flow cytometry using purified antibodies. […] All murine antibodies were incubated for 3 h with either CD37-expressing 300-19 cells or the non-transfected 300-19 cells (1×10⁵ cells per sample) in 100 μL FACS buffer (RPMI-1640 medium supplemented with 2% normal goat serum). Then, the cells were pelleted, washed, and incubated for 1 h with 100 μL of FITC-conjugated goat anti-mouse IgG-antibody (Jackson Laboratory, 6 μg/mL in FACS buffer). The cells were pelleted again, washed with FACS buffer and resuspended in 200 μL of PBS containing 1% formaldehyde. Samples were acquired using a FACSCalibur flow cytometer with the HTS multiwell sampler or a FACS array flow cytometer and analyzed using CellQuest Pro (all from BD Biosciences, San Diego, US).
To verify that the antibodies can also bind to endogenously expressed CD37, binding experiments were performed with CD37-positive WSU-DLCL-2 lymphoma cells and the muCD37-3, muCD37-12, muCD37-8, muCD37-10 or muCD37-14 antibodies. WSU-DLCL-2 cells were incubated with varying concentrations of murine antibodies and processed as described above for flow cytometry analysis. Data analysis was performed using CellQuest Pro (BD Biosciences, San Diego, US) and for each sample the mean fluorescence intensity for FL1 (MFI) was exported and plotted against the antibody concentration in a semi-log plot (FIG. 3). […]

human CD37 [2] = biological target: T2, human CD37; assay: flow cytometry titration on Ramos cells; apparent Kd
Method: as §1
The chimeric antibodies chCD37-3 and chCD37-12 were assayed for their binding affinity to Ramos cells in comparison to their murine counterparts. Flow cytometry binding assays using Ramos cells and muCD37-3, chCD37-3, muCD37-12 and chCD37-12 antibodies were carried out and analyzed as described in Example 2 using secondary FITC-conjugated goat-anti-murine and -anti-human antibodies. FIG. 9A depicts the dose-response curves generated by non-linear regression for each antibody. The value for the apparent dissociation constant (Kd) of each antibody was calculated using GraphPad Prism v4 (GraphPad software, San Diego, Calif.).

macaque CD37 = biological target: T3, macaque CD37 (macaque, UniProt P11049 1-277 (human entry)); assay: flow cytometry, 300-19/CD37mac cells
T3 construct: Expressed on 300-19 cells transfected with pSRa-CD37mac (300-19/CD37mac cells); also called macaca CD37; macaque derived CD37 antigen
T3 chain: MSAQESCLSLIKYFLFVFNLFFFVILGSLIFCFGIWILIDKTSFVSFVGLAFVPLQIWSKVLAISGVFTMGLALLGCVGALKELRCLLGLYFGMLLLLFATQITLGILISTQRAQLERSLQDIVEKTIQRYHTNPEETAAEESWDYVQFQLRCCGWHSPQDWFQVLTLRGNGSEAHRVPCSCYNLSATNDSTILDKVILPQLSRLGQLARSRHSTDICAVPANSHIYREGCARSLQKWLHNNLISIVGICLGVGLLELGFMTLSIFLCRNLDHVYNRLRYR
Procedure, shortened: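 300-19 cells transfected with macaque CD37, alongside non-transfected 300-19 cells (1×10⁵ per sample), incubated 3 h with purified antibodies in RPMI-1640 with 2% normal goat serum. Bound antibody detected with FITC-conjugated anti-mouse or anti-human secondary for 1 h. Cells fixed in 1% formaldehyde before flow cytometry.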

B1: muCD37-3 (antibody, mouse IgG2a, kappa)
heavy: QVQVKESGPGLVAPSQSLSITCTVSGFSLTTSGVSWVRQPPGKGLEWLGVIWGDGSTNYHSALKSRLSIKKDHSKSQVFLKLNSLQTDDTATYYCAKGGYSLAHWGQGTLVTVSAAKTTAPSVYPLAPVCGDTTGSSVTLGCLVKGYFPEPVTLTWNSGSLSSGVHTFPAVLQSDLYTLSSSVTVTSSTWPSQSITCNVAHPASSTKVDKKIEPRGPTIKPCPPCKCPAPNLLGGPSVFIFPPKIKDVLMISLSPIVTCVVVDVSEDDPDVQISWFVNNVEVHTAQTQTHREDYNSTLRVVSALPIQHQDWMSGKEFKCKVNNKDLPAPIERTISKPKGSVRAPQVYVLPPPEEEMTKKQVTLTCMVTDFMPEDIYVEWTNNGKTELNYKNTEPVLDSDGSYFMYSKLRVEKKNWVERNSYSCSVVHEGLHNHHTTKSFSRTPGK
light: DIQMTQSPASLSVSVGETVTITCRASENIRSNLAWYQQKQGKSPQLLVNVATNLADGVPSRFSGSGSGTQYSLKINSLQSEDFGTYYCQHYWGTTWTFGGGTKLEIKRADAAPTVSIFPPSSEQLTSGGASVVCFLNNFYPKDINVKWKIDGSERQNGVLNSWTDQDSKDSTYSMSSTLTLTKDEYERHNSYTCEATHKTSTSPIVKSFNRNEC
notes: Murine hybridoma antibody; also called murine CD37-3 antibody; muCD37-3-PE
- binding result (hCD37-M3): binds
- Kd (human CD37 [1]): 0.52 nM
- Kd (human CD37 [2]): 0.4 nM
- binding result (macaque CD37): no binding
